How the values were obtained:
Experiment in all cases: BLI; biotinylated trimeric gp140 immobilised on streptavidin biosensors; Fabs 1-32 uM in solution; 30 C, 1,000 r.p.m.; kinetic buffer (1X PBS, 0.01% BSA, 0.02% Tween 20, 0.005% NaN3); association 4 min, dissociation 8 min; 1:1 binding model; mean of curves with R2 >= 0.95
[1] = biological target: 426c.TM5ΔV1-3 soluble trimeric gp140 (426c N276D S278R N460D N463D G471S ΔV1 V2 V3) (HIV-1 (clade C, 426c))
[2] = biological target: 426c.TM4ΔV1-3 soluble trimeric gp140 (426c S278R N460D N463D G471S ΔV1 V2 V3) (HIV-1 (clade C, 426c))
[3] = biological target: 426c.TM5 soluble trimeric gp140 (426c N276D S278R N460D N463D G471S) (HIV-1 (clade C, 426c))
[4] = biological target: 426c.TM2 soluble trimeric gp140 (426c S278A N460D N463D) (HIV-1 (clade C, 426c))
[5] = biological target: 426c.TM3 soluble trimeric gp140 (426c S278R N460D N463D) (HIV-1 (clade C, 426c))
[6] = biological target: 426c.TM4 soluble trimeric gp140 (426c S278R N460D N463D G471S) (HIV-1 (clade C, 426c))
[7] = biological target: 426c.TM1 soluble trimeric gp140 (426c N276D N460D N463D) (HIV-1 (clade C, 426c))
[8] = biological target: 426c.TM1ΔV1-3 soluble trimeric gp140 (426c N276D N460D N463D ΔV1 V2 V3) (HIV-1 (clade C, 426c))

Substance	Ka [1] [M⁻¹]	koff [1] [s⁻¹]	kon [1] [M⁻¹ s⁻¹]	Ka [2] [M⁻¹]	koff [2] [s⁻¹]	kon [2] [M⁻¹ s⁻¹]	Ka [3] [M⁻¹]	koff [3] [s⁻¹]	kon [3] [M⁻¹ s⁻¹]	Ka [4] [M⁻¹]	koff [4] [s⁻¹]	kon [4] [M⁻¹ s⁻¹]	Ka [5] [M⁻¹]	koff [5] [s⁻¹]	kon [5] [M⁻¹ s⁻¹]	Ka [6] [M⁻¹]	koff [6] [s⁻¹]	kon [6] [M⁻¹ s⁻¹]	Ka [7] [M⁻¹]	koff [7] [s⁻¹]	other results
germline 3BNC60 Fab	2180	0.477	1040	3490	0.398	1410															
germline 12A21 Fab	30800	0.0515	1590	311000	0.0305	9470	38500	0.403	15500	201000	0.274	55200	174000	0.279	48500	334000	0.168	56200			
germline VRC01 Fab	1.06e+07	0.00065	6860	1.47e+06	0.00426	6250	1.14e+07	0.00225	25600	628000	0.0579	36300	562000	0.064	36000	1.08e+06	0.0264	28700	1.31e+06	0.0113	kon [7]: 14800 M⁻¹ s⁻¹; Ka [8]: 3.09e+06 M⁻¹; koff [8]: 0.00157 s⁻¹; kon [8]: 4840 M⁻¹ s⁻¹
germline VRC-CH31 Fab	8950	0.24	2400																		
germline VRC-PG19 Fab	8.93e+06	0.00216	19300	8.9e+06	0.0027	24100	5.22e+06	0.016	83800	416000	0.172	71500	2.24e+06	0.0442	98900	5.45e+06	0.018	98000	287000	0.14	kon [7]: 40000 M⁻¹ s⁻¹; Ka [8]: 353000 M⁻¹; koff [8]: 0.0315 s⁻¹; kon [8]: 11100 M⁻¹ s⁻¹
germline VRC-PG20 Fab	2.45e+08	0.000149	41200	3.84e+07	0.000511	24500	1.78e+08	0.000553	112000	3.88e+06	0.0129	50900	1.2e+07	0.00487	60500	2.28e+07	0.00257	61100	1.4e+07	0.00343	kon [7]: 49700 M⁻¹ s⁻¹; Ka [8]: 1.24e+07 M⁻¹; koff [8]: 0.00104 s⁻¹; kon [8]: 13500 M⁻¹ s⁻¹
